Changes are numbered by the printed parent chain. In names and notes the source's numbering stands. Several values for one entry are separate records, joined by “and”; a condition that tells them apart may be missing. Equal entries are not always repeated.
Tests used:
[1] = biological target: CXCL8 receptors on bovine peripheral blood neutrophils; assay: preliminary radioligand binding on bovine neutrophils
[2] = biological target: CXCL8 receptors on bovine peripheral blood neutrophils; assay: competition with 20 pM 125I-CXCL8 on 10^6 bovine neutrophils, 45 min on ice
[3] = biological target: CXCL8 receptors on bovine peripheral blood neutrophils; assay: biotCXCL8 binding inhibition on bovine neutrophils; 10 ng/ml unlabeled CXCL8 2 h at 4 C, wash, then 1 ug/ml biotCXCL8; ELISA read-out
[4] = biological target: CXCL8 receptors on bovine peripheral blood neutrophils; assay: biotCXCL8 (1000 ng/ml) on medium-treated bovine neutrophils; alkaline phosphatase-streptavidin and ABTS
[5] = biological target: CXCL8 receptors on bovine peripheral blood neutrophils; assay: cell-based or functional assay
[6] = biological target: CXCL8 receptors on bovine peripheral blood neutrophils; assay: competition with 20 pM 125I-CXCL8 on bovine neutrophils; reference wildtype CXCL8
[7] = biological target: CXCL8 receptors on bovine peripheral blood neutrophils; assay: biotCXCL8 binding inhibition on bovine neutrophils; 10 ng/ml analogue 2 h at 4 C, wash, then 1 ug/ml biotCXCL8; ELISA read-out

125I-CXCL8 (from UniProt P79255 23-101) (ligand)
concentration that just saturated the high affinity receptors [1]: 20 pM

CXCL8 (wild type, unlabeled) (from UniProt P79255 23-101) (ligand)
IC50 [2]: 0.12 nM | percent of biotCXCL8 binding inhibited [3]: 30%

biotinylated CXCL8 (from UniProt P79255 23-101) (ligand)
OD405 [4]: 0.5 to 0.6 OD405

B1: bovine CXCL8(3-74)K11R/G31P (ligand)
chain: TELRCQCIRTHSTPFHPKFIKELRVIESPPHCENSEIIVKLTNGNEVCLNPKEKWVQKVVQVFVKRAEKQDP
IC50, inhibition of bovine neutrophil chemotaxis to 1 ug/ml (129 nM) CXCL8 [5]: 0.11 nM | concentration for complete blocking of bovine neutrophil chemotaxis to 1 ug/ml CXCL8 [5]: 10 nM | concentration for complete inhibition of bovine neutrophil chemotaxis to human CXCL5, CXCL1 or CXCL8 [5]: 3 nM and 20 nM | concentration reducing by 50% the bovine neutrophil chemotactic response to 10 ng/ml human CXCL8 [5]: 0.04 nM | concentration reducing to 50% the bovine neutrophil chemotactic response to 1 ng/ml human CXCL1 [5]: 0.26 nM | concentration reducing to 50% the bovine neutrophil chemotactic response to 1 ng/ml human CXCL5 [5]: 0.06 nM | reduction of the chemotactic response of bovine neutrophils to 1 ug/ml (129 nM) CXCL8 by 12.9 pM analogue [5]: 33% | IC50 [2]: 0.004 nM | fold more effective than wildtype CXCL8 in inhibiting 125I-CXCL8 binding [6]: 100 fold | percent of subsequent biotCXCL8 binding blocked [7]: 95%

B2: bovine CXCL8(3-74)K11R/P32G (ligand)
chain: B1 chain with P29G, P30G
percent of CXCL8 binding blocked [7]: 48%
